Experimental data: US20170189505A1

Target: HLA-A*24 (human)
Assay: UV peptide exchange, anti-b2m ELISA

peptide exchange yield [%] | Binder
50 to 75 | YYGPSLFLL [SEQ ID No 200 peptide …]
50 to 75 | TFSVSSHLF [SEQ ID No 222 peptide …]
50 to 75 | YFIDSTNLKTHF [SEQ ID No 269 peptide …]
> 75 | VYQGHTALL [SEQ ID No 277 peptide …]
20 to 49 | AYVVFVSTL [SEQ ID No 207 peptide …]
50 to 75 | QYLGQIQHI [SEQ ID No 268 peptide …]
> 75 | VYWDSAGAAHF [SEQ ID No 202 peptide …]
50 to 75 | YYKSTSSAF [SEQ ID No 218 peptide …]
50 to 75 | RYAEEVGIF [SEQ ID No 199 peptide …]
50 to 75 | LYITEPKTI [SEQ ID No 287 peptide …]
50 to 75 | TYKDEGNDYF [SEQ ID No 209 peptide …]
> 75 | TYELRYFQI [SEQ ID No 204 peptide …]
50 to 75 | NYYEVHKELF [SEQ ID No 270 peptide …]
50 to 75 | IYATEAHVF [SEQ ID No 201 peptide …]
20 to 49 | PYRLIFEKF [SEQ ID No 281 peptide …]
50 to 75 | HYPPVQVLF [SEQ ID No 285 peptide …]
